# Experiment: yeast display, Sf9 membrane polyspecificity reagent, FACS + sequencing; frameworks hold sequencing errors
# Procedure, shortened: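 Nanobodies from a synthetic yeast display library (Saccharomyces cerevisiae BJ5465), induced 36–48 hours with galactose, were stained 1 hour at 4 °C with 10% biotinylated, detergent-solubilized Sf9 membrane reagent, enriched on streptavidin microbeads, then FACS-sorted. Anti-HA (expression) and streptavidin (reagent binding) fluorescence set low and high (top ~1%) gates. Polyreactivity labels come from the gate of origin. Genes were colony-PCR amplified, MiSeq 2 × 250 sequenced and filtered by CDR length.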
row,Sequence,polyreactivity (PSR sort gate)
1,QVQLVESGGGLVQAGGSLRLSCAASGNIFANYAMGWYRQAPGKERELVAAIRWSASRTYYADSVKGRFTISRDNAKNTVYLQMNSLIPEDTAVYYCAATIYTFWDYYYDYWGQGTQVTVSS,high polyreactivity
2,QVQLVESGGGLVQAGGSLRLSCAASGNIFAPNAMGWDRQAPGKERELVAAISRSGGSTHYADSVKGRFTISRDNAKNTVYLQMNSLKPEDTAVYYCAAGWYGRYTSKMGYWGQGTQVTVSS,high polyreactivity
3,QVQLVESGGGLVQAGGSLRLSCAASGNIFAWYAMGWYRQAPGKERELVADISSRGGSSYYADSVKGRFTISRDTAKNTVYLQMNSLKPEDTAVYYCAAVWYWTQDYDYWGQGTQVTVSS,low polyreactivity
4,QVQLVESGGGLVQAGGSLRLSCAASGNIFDGNAMGWYRQAPGKERELVAAITSSGDSTYYADSVKGRFTISRDNAKNTVYLLMNSLKPEDTAVYYCAAGYRWGYYYWGQGTQVTVSS,high polyreactivity
5,QVQLVESGGGLVQAGGSLRLSCAASGNIFDGNSMGWYRQAPGKERELVAAITGRGGGTYYADSVKGRFTISRDNAKNTVYLQMNSLKPEDTAVYYCAAPWVVRRTAYDYWGQGTQVTVSS,high polyreactivity
6,QVQLVESGGGLVQAGGSLRLSCAASGNIFDIYAMGWYRQAPGKERELVAAISSGGSTYYADSVKGRFTISRDNAKNTVYFQMNSLKPEDTAVYYCAESRVGYYRYEYWGQGTQVTVSS,low polyreactivity
7,QVQLVESGGGLVQAGGSLRLSCAASGNIFDIYAMGWYRQAPGKERELVAAITSGVRTYYADSVKGLFTISRDNAKNTVYLQMNSVKPEDTAVYYCATPSPHVGLKWEYDYWGQGTQVTVSS,low polyreactivity
8,QVQLVESGGGLVQAGGSLRLSCAASGNIFDQNAMGWYRQAPAKERELVAAITRSGSTTYYADSVKGRFTISRDNAKNTVYLQMNSLKPEDTAVYYCAAKVYAYRTYKMYYWGEGTQVTVSS,high polyreactivity
9,QVQLVESGGGLVQAGGSLRLSCAASGNIFDYYAMGWYRQAPGKERELVAAISTGTSTYADSVKGRFTISRDNAKNTVYLQMNSVKPEDTAVYYCASDVGIRPLNYHPYNYWGQGTQVTVSS,low polyreactivity
10,QVQLVESGGGLVQAGGSLRLSCAASGNIFFSNAMGWYRQAPGKERELLASISQSGGSTYYADSVKGRFTISRDNAKNTVYLQMNSLKPEDTAVYYCAATQVRRGPAWGRDYWGQGTQVTVSS,low polyreactivity
11,QVQLVESGGGLVQAGGSLRLSCAASGNIFGRYAMGWYRQAPGKERELVAAINWSGGSTNYADSVKGRFTISRDNAKNTVYLQMNSLKPEDTAVYYCAADYYYSLISNQYKYGQRNFDYWGQGTQVTVSS,low polyreactivity
12,QVQLVESGGGLVQAGGSLRLSCAASGNIFGRYAMGWYRQAPGKERELVAAISWSGGSTFYADSVKGRFTISRDNAKNTVYLQMNSLKPEDTAVYYCAAEYWVYDSYWFDYDYWGQGTQVTVSS,high polyreactivity
13,QVQLVESGGGLVQAGGSLRLSCAASGNIFGYNAMGWYRQAPGKERELVAAITSDGRTYYADSVKGRFTISRDNAKNTVYLQMNSLKPEDTAVYYCAADSSGYYWFNYWGQGTQVTVSS,low polyreactivity
14,QVQLVESGGGLVQAGGSLRLSCAASGNIFLSYAMGWYRQAPGKERELVAGISASGGRTYYADSVKGRFTISRDNAKNTVYLQMNSLKPEDTAVYYCATRNTRFHLDYWGQGTQVNVSS,high polyreactivity
15,QVQLVESGGGLVQAGGSLRLSCAASGNIFLYYAMGWYRQAPGNERELVADIDSSGASTYYADSVKGRFTISRDNAKNTVYFQMNSLKPEDTAVYYCASEFHWWYAGYDYGYWGQGTQVTVSS,low polyreactivity
16,QVQLVESGGGLVQAGGSLRLSCAASGNIFNGNAMGWYRQAPGKERELVAAIRGNGGITYYADSVKGRFTISRDNAKNTVYLQMNSLKPEDTAVYYCAVRSAWVYGIGRYYWGQGTQVTVSS,high polyreactivity
17,QVQLVESGGGLVQAGGSLRLSCAASGNIFPYNAMAWYRQAPGKERELVATISSGGSTYYADSVKGRFTISRDNAKNTVYLQMNSLKPEDTAVYYCAARGRYPYRYGYWGQGTQVTVSS,high polyreactivity
18,QVQLVESGGGLVQAGGSLRLSCAASGNIFRANPMGWYRQAPGKERELVASITVSGGSTNYADSVKGRFTISRDNAKNTVYLQMNSLKPEDTAVYYCAKTLTRSVKFSTVLLGPTPDYYWGQGTQVTVSS,high polyreactivity
19,QVQLVESGGGLVQAGGSLRLSCAASGNIFRGYTMGWYRQAPGKERELVATITWNGVSTFYADSVKGRFTISRDNAKNTVYLQMNSLKPEDTAVYYCAAYYPSHDYSGFWSDTYEYWGQVTQVTVSS,low polyreactivity
20,QVQLVESGGGLVQAGGSLRLSCAASGNIFRGYTMGWYRQAPGKERELVAVISFGDGGTYYADSVKGRFTISRDNAKNTVYLQMNSLKPEDTAVYYCATDYQSTSVWGGHFVINPYDYWGQGTQVTVSS,low polyreactivity
21,QVQLVESGGGLVQAGGSLRLSCAASGNIFRNNAMGWYRQAPGKERELVAAISRGGSTYYADSVKGRFTISRDNAKNTVYLQMNSLKPEDTAVYYCNKYSSRAYNYWGQGTQVTVSS,high polyreactivity
22,QVQLVESGGGLVQAGGSLRLSCAASGNIFSDNAMGWYRQAPGKESELVAAITSGGSTNYADSVKGRFTISRDNAKNTVYLQMNSLKPEDTAVYYCAADISYRHFLFDYWGQGTQVTVSS,low polyreactivity

row,Sequence,polyreactivity (PSR sort gate)
1,QVQLVESGGGLVQAGGSLRLSCAASGNIFSDYTMGWYRQAPGKERELVAAISGDGGTTYYADSVKGRFTISRDNAKNTVYLQMNSLKPEDTAVYYCAADGYYDAYDQFFIVYYEYDYWGQGTQVTVSS,low polyreactivity
2,QVQLVESGGGLVQAGGSLRLSCAASGNIFSSNAMGWYRQAPGKERELVAAISASGGNTYYSDSVKGRFTISRDNAKNTVYLQMNSLKPEDTAFYYCNAYRGGYLRRGYYYWGQGTQVTVSS,high polyreactivity
3,QVQLVESGGGLVQAGGSLRLSCAASGNIFSSNDMGWYRQAPGKQRELVAANTRSGGSTYYADSVKGRFTISRDNAKNTLYIQMNSHTPEDTAVYDGAGRPYPRNSWGYDDWGQGTQVTVSS,high polyreactivity
4,QVQLVESGGGLVQAGGSLRLSCAASGNIFSSYVMGWYRHAPGKERELVAAISSRGGSTYYADSVKGRFTISRDNAKNTVYLQMNSLKPEDTAVYYCAARYLSWYDWGQGTQVTVSS,high polyreactivity
5,QVQLVESGGGLVQAGGSLRLSCAASGNIFSWYAMGWYRQAPGKERELVAAITSGGITYYADSVKGRFTISRDNAKNTVYLQMNSLKPEDTAVYYCNIDVGFTRPLYYWGQGTQVTVSS,low polyreactivity
6,QVQLVESGGGLVQAGGSLRLSCAASGNIFTGYMGWYRQAPGKERELVAAISRSGGRTHYADSVKGRFTISRDNAKNTVYLQMNSLKPEDTAVYYCNADVRRYTAFTKDAYAFNYWGQGTQVTVSS,high polyreactivity
7,QVQLVESGGGLVQAGGSLRLSCAASGNIFTLNTSGCYRQAPGKERELVARITSGDRKYYADSVKGRFTISRDNAKNTVYLQMNSLKPEDTAVYYCAARRPAYYSFWVTGYNYWGQGTQVTVSS,high polyreactivity
8,QVQLVESGGGLVQAGGSLRLSCAASGNIFTNNAMGWYRQAPGKEREFVAAITRSGGSTSYADSVKGRFTISRDNAKNTVYLQMISLNPEDTAVYYCAATGYRYRRIYGFDYWGQGTQVTVSS,high polyreactivity
9,QVQLVESGGGLVQAGGSLRLSCAASGNIFTRNAMGWYRQAPGKVRELVASITRGGSTYADSVKGLFTISRDNAKNTVYLQMNSLKPEDTAVYYCAASCYYSSHMDYWGQGTQVTVSS,high polyreactivity
10,QVQLVESGGGLVQAGGSLRLSCAASGNIFVFYVMGWYRQAPGKERELVASISSTGNTYYADSVKGRFTISRENAMNTVYLQLNRLKPEDTAVYYCAADSHQNVSGWLRWPRMDYWGQGTQVTVSA,low polyreactivity
11,QVQLVESGGGLVQAGGSLRLSCAASGNIFVLNPMGWYRQATCKETELVAAISRSGVRTYYADSVKGRFTISRDNAKNTVYLQMNSLKPEDTAVYYCAAVYKRLQPYGYWGQGTQETVSS,high polyreactivity
12,QVQLVESGGGLVQAGGSLRLSCAASGNIFVWNDMGWYRQAPGKERELVAAISLSGSSTYYADSVKGRFTISRDNAKNTVYLQMNSLKPEDTAVYYCATTRRVPGEYWGQGTQVTVSS,high polyreactivity
13,QVQLVESGGGLVQAGGSLRLSCAASGNIFWGNAMGWYRQAPGKERELVAAITSIDSSTYYADSVKGRFTISRDNAKNTVYLQMNSLKPEDTAVYYCAADGDWYGYIWQSDDGYDSWGQGTQVTVSS,low polyreactivity
14,QVQLVESGGGLVQAGGSLRLSCAASGNIFWRNAMGWYRQAPGKERELVAAISRRAVSTYYADSVKGRFTISRDNAKNTVYLQMNSLKPEDTAVYYCAARLGGENDYWGQGTQVTVSS,high polyreactivity
15,QVQLVESGGGLVQAGGSLRLSCAASGNIFYANAMGWYRQAPGKERELVAGITVRGGRTYYADSVKGRFTISRDNAKNTVYLQMNSLKPEDNAVYYCAVRSRGSRYDYWGQGTQVNVSS,high polyreactivity
16,QVQLVESGGGLVQAGGSLRLSCAASGNIFYAYDMGWYRQAPGKERELVAAITNGDSTDYADSVKGRFTISRDNAKNTVYLQMNSLKPEDTAVYYCNADYLPEPWALGGSQYDYWGQGTQVTVSS,low polyreactivity
17,QVQLVESGGGLVQAGGSLRLSCAASGNIFYGYAMGWYRQAPGKERELVAAITSDGITYYADSVKGRFTISRDNAKNTVYLQMNSLKPEDTAVYYCNVTQLYEYYKYYYWGQGTQVTVSS,low polyreactivity
18,QVQLVESGGGLVQAGGSLRLSCAASGNIFYRKARGWYRQAPGKERELVAAITSGGGSTYYADSVKGRFTISRDNAKNTVYLQMNSLKPVDTAVYYCNAYAWNYFGIKVTYDYWGQGTQVTVSS,high polyreactivity
19,QVQLVESGGGLVQAGGSLRLSCAASGNIFYVYVMGWYRQAPGKERELVASITSGASTYYADSVKGRFTISRDNAKNTVYFQMNSLKPEDTAVYYCAAEALGGAGDYSTLYIYDYWGQGTQVTVSS,low polyreactivity
20,QVQLVESGGGLVQAGGSLRLSCAASGNIIDANAIGWYRPAPGKERQLVAAITSSGGSTYYADSVKGRFTISRDNAKNTVYLQMNSLKPEDTAVYYCAKSHAIYYWWDESWGQGTQVTVSS,low polyreactivity
21,QVQLVESGGGLVQAGGSLRLSCAASGNIISIYAMGWYRQAPGKEREFVASNDWSVASTYYADSVKGRFTISRDNAKNTVYLQMNSLKPEDTAVYYCAAELFGLKYGYYLSYDYWGQGTQVTVSS,high polyreactivity

# From the nanobody polyreactivity screen of Harvey et al. (2022)
